Laboratory results: paper PMC3532415

What was measured:
[1] = biological target: histone H3 1–15 K9me2 peptide (UniProt P68431); test: fluorescence polarisation; fluorescence-labelled peptide constant at 40 nM, SUV39H1 (42–100 or 44–106) titrated from low to high micromolar; 20 mM Tris-HCl pH 8.5 or 7.5, 150 mM NaCl, 1 mM DTT, 0.01% Tween-X-100; 10 µL in 384-well plates; fit to a hyperbolic function
[2] = biological target: histone H3 1–15 K9me3 peptide (UniProt P68431); test: as above

Kd [1]: 29 µM | Kd [2]: 20 µM
Substance: human SUV39H1 chromodomain (aa 42–100), complete chromodomain (from UniProt O43463 42-100) (domain or fragment)
